Reference: the RNAGym collection of RNA variant scans (doi:10.1101/gr.219683.116)

B1: mRNA-splicing (parent)
chain: AGUUGCUGCUGGGAGCUCCAGCACAGUGAAAUGGACAGAAGGGCAGAGCAA

Variants of: B1
Test: exon inclusion enrichment index; higher = more inclusion; WT1 exon 5 minigene, HEK293

Variant | exon inclusion enrichment index
AGUUCACACAGGGACGUCCAGCACAGUGAAAUGGACAGAAGGGCAGAGCAA [G5C C6A U7C G8A U10A G15C C16G] | 0.0998
AGUUGCUGCUGGGAGCUCGUGCACAGUGAAAUGGACAGAAGGGCAGAGCAA [C19G A20U] | 2.21
AGUUCUGACAGGGAGCUCCAGCACAGUGAAAUGGACAGAAGGGCAGAGCAA [G5C C6U U7G G8A U10A] | 0.0911
AGUUUCUUUUUGGAGCUCCAGCACAGUGAAAUGGACAGAAGGGCAGAGCAA [G5U G8U C9U G11U] | 0.144
AGUUGCUGCUGUUAGCUCCAGCACAGUGAAAUGGACAGAAGGGCAGAGCAA [G12U G13U] | 0.199
AGUUGCUGCUGGGAGCUCCAGCACAGUGAAAUGGACAGAAGGGCAGGGCAA [A47G] | 0.0334
AGUUUCUUUUGGGAGCUCCAGCACAGGUAAAUGGACAGAAGGGCAGAGCAA [G5U G8U C9U U27G G28U] | 0.000678
AAGUAGGGAUGGGAGCUCCAGCACAGUGAAAUGGACAGAAGGGCAGAGCAA [G2A U3G G5A C6G U7G C9A] | 0.00228
AGUUCACACAGGGAGCUCCAGCACAGUGAAAUGGACAGAAGGGAGGAGCAA [G5C C6A U7C G8A U10A C44A A45G] | 0.213
AGUUCACACAGGGAGCUCCAGCACAGUGAAAUGGACAGAAGGGCAGAACAA [G5C C6A U7C G8A U10A G48A] | 0.25
AGUUGAAGAAGGGAGCUCCAGCACAGUGAAAUGGCAAGAAGGGCAGAGCAA [C6A U7A C9A U10A A35C C36A] | 0.329
AGUUAUGGAUGGGAGCUCCAGCACAGUGAAAUGGACAGAAGGGCAGAGCAA [G5A C6U U7G C9A] | 0.561
AGUUCUUCUCGUCAGCUCCAGCACAGUGAAAUGGACAGAAGGGCAGAGCAA [G5C C6U G8C C9U U10C G12U G13C] | 0.698
AGUUCUUCUCGGGAGCUCCAGCACAGUGAAAUGGACAGAAGGGACGAGCAA [G5C C6U G8C C9U U10C C44A A45C] | 3.61
AGUUCACACAGGGAGCUCCAGCACAGUGAAAUGGGUAGAAGGGCAGAGCAA [G5C C6A U7C G8A U10A A35G C36U] | 0.00147
AGUUCUUCUCGGGAGCUCCAUGACAGUGAAAUGGACAGAAGGGCAGAGCAA [G5C C6U G8C C9U U10C G21U C22G] | 1.74
AGUUGAAGAAGGGAGCUCCAGCACAGUGAAAUAUACAGAAGGGCAGAGCAA [C6A U7A C9A U10A G33A G34U] | 0.0565
AGUUCUUCUUUGGAGCUCCAGCACAGUGAAAUGGACAGAAGGGCAGAGCAA [G5C C6U G8C C9U G11U] | 0.905
AGUUGCUGCUGGGAGCUCCAGCACAGUGAUCUGGACAGAAGGGCAGAGCAA [A30U A31C] | 0.202
AGUUAGGGAUGGGAGACCCAGCACAGUGAAAUGGACAGAAGGGCAGAGCAA [G5A C6G U7G C9A C16A U17C] | 0.00344
AGUUCGCGCCGGGAGCUCCAGCACAGUGAAAUGGACAGAACUGCAGAGCAA [G5C C6G U7C U10C G41C G42U] | 4.21
AGUUUCUUUUGGGAGCUCCAGCACAUGGAAAUGGACAGAAGGGCAGAGCAA [G5U G8U C9U G26U U27G] | 0.458
AGUUCUUCUCGGGAGCUCCAGCACAGUAAAAUGGACAGAAGGGCAGAGCAA [G5C C6U G8C C9U U10C G28A] | 0.598
AGUUAUAUAUGGGAGCUCCAGCACAGUGAAAUGGACAGAGAGGCAGAGCAA [G5A C6U U7A G8U C9A A40G G41A] | 0.0181
AGUUAGGGAUGGGAGCUCCAGCACAGUCCAAUGGACAGAAGGGCAGAGCAA [G5A C6G U7G C9A G28C A29C] | 0.00678
AGUUAGGGAUGGGUCCUCCAGCACAGUGAAAUGGACAGAAGGGCAGAGCAA [G5A C6G U7G C9A A14U G15C] | 0.00121

Variant | exon inclusion enrichment index
AGUUAGGGAUGGGUUCUCCAGCACAGUGAAAUGGACAGAAGGGCAGAGCAA [G5A C6G U7G C9A A14U G15U] | 0.000762
AGUUCCCACAGGGAGCUCCAGCACAGUGAAAUGGACAGAAGGGCAGAGCAA [G5C U7C G8A U10A] | 0.03
AGUUCGCGCCGGGAGCUGAAGCACAGUGAAAUGGACAGAAGGGCAGAGCAA [G5C C6G U7C U10C C18G C19A] | 4.24
AGUUGACGACGGGAGCUCCAGCACAGUGAAAUGGACAGAAGGUCAGAGCAA [C6A U7C C9A U10C G43U] | 2.81
AGUUGCUGCUGGGAGCUCCAGCACAGUGAAAUGGACAGAAGGGCACUGCAA [G46C A47U] | 0.224
AGUUUCUUUUGGGAGCUCCAGCACAGUGAAAUGGACAGAAGAUCAGAGCAA [G5U G8U C9U G42A G43U] | 1.46
AGUUUCUUUUGGGAGCUCCAGCACAGUUAAAUGGACAGAAGGGCAGAGCAA [G5U G8U C9U G28U] | 0.0111
AGUUGAAGAAGGGAGUUCCAGCACAGUGAAAUGGACAGAAGGGCAGAGCAA [C6A U7A C9A U10A C16U] | 0.472
AGUUGAAGAAGGGAGCUCCAGCACAGUGAAAUGGACAGAAGGGCGAAGCAA [C6A U7A C9A U10A A45G G46A] | 2.3
AGUCAUUCUCGGGAGCUCCAGCACAGUGAAAUGGACAGAAGGGCAGAGCAA [U4C G5A C6U G8C C9U U10C] | 1.56
AGUUGAAGACUGGAGCUCCAGCACAGUGAAAUGGACAGAAGGGCAGAGCAA [C6A U7A C9A U10C G11U] | 3.37
AGUUACCACCGGGAGCCCCAGCACAGUGAAAUGGACAGAAGGGCAGAGCAA [G5A U7C G8A U10C U17C] | 1.62
AGUUAGGGAUGGGAGCUCCAGCACACUGAAAUGGACAGAAGGGCAGAGCAA [G5A C6G U7G C9A G26C] | 0.00298
AGUUACCACCGAUAGCUCCAGCACAGUGAAAUGGACAGAAGGGCAGAGCAA [G5A U7C G8A U10C G12A G13U] | 0.132
AGUUACCACCGACAGCUCCAGCACAGUGAAAUGGACAGAAGGGCAGAGCAA [G5A U7C G8A U10C G12A G13C] | 0.711
AGUUCGCGCCGGGAGCUCCAGCACAGUGAAAUGGACAUCAGGGCAGAGCAA [G5C C6G U7C U10C G38U A39C] | 3.03
AGUUGAAGAAGGGAGCCCCAGCACAGUGAAAUGGACAGAAGGGCAGAGCAA [C6A U7A C9A U10A U17C] | 0.424
AGUUGACGACGGGAGCUCCAGCACAGUGAAAUGCUCAGAAGGGCAGAGCAA [C6A U7C C9A U10C G34C A35U] | 0.98
AGUUGCUGCUGGGAGCUCCAGCUUAGUGAAAUGGACAGAAGGGCAGAGCAA [A23U C24U] | 0.078
AGUUCGCGCCGGGAGCUCCAGCACUUUGAAAUGGACAGAAGGGCAGAGCAA [G5C C6G U7C U10C A25U G26U] | 3.03
AGUUGACGACGGGAGCUCCAGCACAGUGAAAUGGACUAAAGGGCAGAGCAA [C6A U7C C9A U10C A37U G38A] | 1.46
AGUUCGCGCCGGGAGCUUUAGCACAGUGAAAUGGACAGAAGGGCAGAGCAA [G5C C6G U7C U10C C18U C19U] | 0.197
AGUUGAGUACGGGAGCUCCAGCACAGUGAAAUGGACAGAAGGGCAGAGCAA [C6A U7G G8U C9A U10C] | 0.407
AGUUGAAGAAGGGAGCUCCAGCACAGUGAAAUGGACAGAUCGGCAGAGCAA [C6A U7A C9A U10A A40U G41C] | 1.33
AGUUGAAGAAGGGAGCUCCAGCACAGUGAAAUCCACAGAAGGGCAGAGCAA [C6A U7A C9A U10A G33C G34C] | 0.353
